Experimental findings from patent US4851572A, “γ-L-glutamyl-4-nitroanilide derivatives and process for determining γ-GTP activity using the same” (Wako Pure Chemical Industries, Ltd., priority 1987, dated 1989) are described below.

The subject of the data set is T1, N[C@@H](CCC(=O)Nc1ccc([N+](=O)[O-])c(CO)c1)C(=O)O.
T1 construct: As samples, there were used human serum; from tissue; host or cells: human serum
The experiment in a line: Km value, γ-GTP from human serum. In kind it is biochemical. Conditions: other: human serum γ-GTP. The text has this:
In Table 3 are shown the results of measuring, by a conventional method, Km values of γ-L-glutamyl-3-hydroxymethyl-4-nitroanilide, which is a compound of this invention, for each of γ-GTPs derived from human serum, porcine kidney and bovine kidney.
In Table 3 are also shown, for reference, Km values of γ-L-glutamyl-3-carboxy-4-nitroanilide and γ-L-glutamyl-p-nitroanilide reported by Leslie M. Shaw (Clinical Chemistry, 23, 79 (1977)).

Chain of γ-GTP (human serum) (Homo sapiens) (chain, as listed by the source): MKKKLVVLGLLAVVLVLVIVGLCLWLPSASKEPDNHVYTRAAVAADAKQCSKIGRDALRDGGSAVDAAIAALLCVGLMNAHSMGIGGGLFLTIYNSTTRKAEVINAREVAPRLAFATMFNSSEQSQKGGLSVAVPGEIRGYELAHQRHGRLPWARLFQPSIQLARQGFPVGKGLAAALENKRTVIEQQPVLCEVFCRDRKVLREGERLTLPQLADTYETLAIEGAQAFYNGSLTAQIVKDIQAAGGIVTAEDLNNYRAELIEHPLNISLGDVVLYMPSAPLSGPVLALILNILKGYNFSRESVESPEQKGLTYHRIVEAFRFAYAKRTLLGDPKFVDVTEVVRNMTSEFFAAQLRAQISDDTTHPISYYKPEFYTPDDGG
Chain of γ-GTP (human serum) (Homo sapiens) (chain, as listed by the source): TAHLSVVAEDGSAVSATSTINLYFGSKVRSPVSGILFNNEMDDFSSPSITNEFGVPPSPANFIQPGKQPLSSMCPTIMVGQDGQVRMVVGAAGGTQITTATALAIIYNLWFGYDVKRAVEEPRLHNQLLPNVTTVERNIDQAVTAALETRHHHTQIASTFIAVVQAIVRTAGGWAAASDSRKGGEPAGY

γ-GTP (human serum) (Homo sapiens): the Km came out at 940 µM.

One may read the Km as the substrate concentration at which the rate is half of its maximum.
